Laboratory results reported in publication PMC8809517, “Cofactor-independent RNA editing by a synthetic S-type PPR protein”.
Residue numbers refer to the chain shown, from its start.

T1: GFP-9S library array, motif 4 ND N98T;D124R (synthetic construct, N98T;D124R)
T1 chain: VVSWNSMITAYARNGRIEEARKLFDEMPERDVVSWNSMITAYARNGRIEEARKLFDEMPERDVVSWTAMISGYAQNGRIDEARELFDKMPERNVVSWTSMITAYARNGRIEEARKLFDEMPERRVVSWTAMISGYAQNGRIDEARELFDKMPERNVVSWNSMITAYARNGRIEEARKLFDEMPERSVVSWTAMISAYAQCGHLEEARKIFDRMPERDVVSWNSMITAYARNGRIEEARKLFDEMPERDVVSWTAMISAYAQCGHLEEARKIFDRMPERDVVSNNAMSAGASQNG

T2: GFP-9S library array, motif 4 ND N98R;D124G (synthetic construct, N98R;D124G)
T2 chain: T1 chain with T98R, R124G

T3: GFP-9S library array, motif 4 ND N98S;D124W (synthetic construct, N98S;D124W)
T3 chain: T1 chain with T98S, R124W

T4: GFP-9S library array, motif 4 ND N98S;D124F (synthetic construct, N98S;D124F)
T4 chain: T1 chain with T98S, R124F

T5: GFP-9S library array, motif 4 ND N98R;D124P (synthetic construct, N98R;D124P)
T5 chain: T1 chain with T98R, R124P


Assays:
Assay in all cases: high-throughput RNA pulldown from lysate on Ni-NTA beads; HRP: 50 mM Tris pH 8, 150 mM NaCl, 1 mM beta-mercaptoethanol, 50 ug/ml BSA, 3 ug/ml yeast RNA, 0.5% heparin; ITC and FP: Tris pH 8, 200 mM KCl, 5% glycerol; MST: 50 mM Tris pH 8, 200 mM NaCl, 1 mM DTT, BSA, heparin, 0.05% Tween 20
Conditions in all cases: tags: N-terminal His-eGFP
[1] = molecular target: T1, GFP-9S library array, motif 4 ND …
[2] = molecular target: T2, GFP-9S library array, motif 4 ND …
[3] = molecular target: T3, GFP-9S library array, motif 4 ND …
[4] = molecular target: T4, GFP-9S library array, motif 4 ND …
[5] = molecular target: T5, GFP-9S library array, motif 4 ND …

Binder | Kd ([1]; label: 5' Cy5) | Kd ([2]; label: 5' Cy5) | Kd ([3]; label: 5' Cy5) | Kd ([4]; label: 5' Cy5) | Kd ([5]; label: 5' Cy5) | Kd ([1]; label: 5' IRDye 800CW) | Kd ([2]; label: 5' IRDye 800CW) | Kd ([3]; label: 5' IRDye 800CW) | Kd ([4]; label: 5' IRDye 800CW) | Kd ([5]; label: 5' IRDye 800CW)
AUUAGACGUGA (ssRNA) [Cy5-rpoA-G] | 120 nM | 102 nM | 126 nM | 77.7 nM | 151 nM |  |  |  |  | 
AUUACACGUGA (ssRNA) [Cy5-rpoA] | 132 nM | 74.7 nM | 90.7 nM | 39 nM | 143 nM |  |  |  |  | 
AUUAUACGUGA (ssRNA) [IR-rpoA-U] |  |  |  |  |  | 133 nM | 97.3 nM | 156 nM | 171 nM | 163 nM
AUUAAACGUGA (ssRNA) [IR-rpoA-A] |  |  |  |  |  | 80.8 nM | 191 nM | 218 nM | 76.7 nM | 335 nM
